# From patent publication US20230391852A1 (US Dept. of Health and Human Services, published 2023)
# B1: 1A7 VHH-hFc (Fc fusion)
# chain: QVQLVESGGGLVQPGGSLRLSCVASGFTFSSVDMSWVRQDPRKGLEWVSGINSGGGSTSYADSVKGQFTISRDNAKNTLYLEMNNLKPEDTAVYYCATGLAASGVWGQGTQVTVSS
# notes: also called NCI-CoV-1A7 VHH-hFc fusion protein
# B2: 2C7 VHH-hFc (Fc fusion)
# chain: EVQLVESGGGSVQTGGSLRLSCVVSGYDYSNYCVAWFRQAEGKNREGLAGINTHGAYTNYNTPAKGRFTISQDLTKNTFTLQMNSLTPEDTAIYYCAAYPEYCPRFSSSSWNNSAVWGQGTQVTVSS
# notes: also called NCI-CoV-2C7 VHH-hFc fusion protein
# B3: NCI-CoV-1A10 (VHH)
# VHH: AVQLVDSGGGSVQAGGSLRLSCAASGFTGSNYCLGWFRQAPGKEREGVAVIERDTGGTTYPNSLEGRFTIAQDNAKNMVYLHMRNLQPEDTGTYTCAAARNGDSFGGFTFWGQGTQVTVSS
# B4: NCI-CoV-8G12 (VHH)
# VHH: AVQLVDSGGGSVQAGGSLRLSCAASGYTSNMNHMGWFRQAPGKGLEWVSGIYSDGSTYYGDSVKGRFTISRDNAKNMLYLQMNNLKPEDTAVYYCSGDGGGIGYNYWGQGTQVTVSS
# B5: NCI-CoV-8E1 (VHH)
# VHH: EVQLVESGGGSVQAGGSLRLSCAASGFTFSSYYMSWVRQAPGKGLEWVSGIYSDGSTYYGDSVKGRFTISRDNAKNTLYLQMNSLKSEDTALYYCAIGTGTTRQGQGTQVTVSS
# B6: NCI-CoV-1H6 (VHH)
# VHH: AVQLVDSGGGSVQAGGSLNLSCVASGTTLRNGCMAWFRQVPGKEREVVAIIIRATSYTDYADSVKGRFTISQDNAKNTVYLQMKSLTPEDTATYYCAATLYRVNCAKREFDKWGQGTQVTVSS
# B7: NCI-CoV-7A3 (VHH)
# VHH: QVQLVESGGGSVQPGGSLRLSCVVSGYTSSSRYMGWFRQVPGKGLEWVSGIKRDGTNTYYADSVKGRFTISQDNAKNTVYLQMNSLKPEDTAMYYCAAGSWYNQWGYSMDYWGKGTQVTVSS
# B8: NCI-CoV-7C4 (VHH)
# VHH: EVQLVESGGGLVQPGGSLRLSCTASGFTFSSYDMSWVRQAPGKGLEWVSGINSGGNKIYYADSVKGRFTISRDNAKNTLYLQMSSLKSEDTALYYCAIGRLYSVKGQGTQVTVSS
# B9: NCI-CoV-1G11 (VHH)
# VHH: QVQLVESGGGSVQAGGSLRLSCVASGDTNTRQYMGWFRQAPGKEREGVAVVHSDSGGTYYADSVKERFIIAQDNAKNTVYLTMNSLKVEDTAIYYCAAKTLEKPHFSVFSAASYDYWGQGTQVTVSS
# B10: NCI-CoV-8B6 (VHH)
# VHH: AVQLVDSGGGSVQAGGSLRLSCAASGITYSTNCMGWFRQAPGKGLEWVSGINSDGRNTYYADSVKGRFTISQDNAKNTVYLQMNSLKPEDTAMYYCAAGSWYNQWGYSMDYWGQGTQVTVSS
# B11: 8A4 VHH-hFc (Fc fusion)
# chain: EVQLVESGGGLVQPGESLRLSCEASGFTFSSVYMSWVRQAPGKGLEWISTIHPAGGSTYYADSMKDRFTISRDNAKNTLYLQMNSLKSEDTALYYCIIEALSGYRGPGTQVTVSS
# notes: also called 8A4-hFc; NCI-CoV-8A4 VHH-hFc fusion protein
# B12: 2F7 VHH-hFc (Fc fusion)
# chain: QVKLEESGGGSVQSGGSLRLSCTVSRDTNTNINRCMGWFRQAPGKGLETVATINRDGTNTYYTDAVKGRFTISQDNVKNTVYLQMNNLTPEDTGTYICNAMGRGSGSRCDNWDPNYWGQGTQVTVSS
# notes: also called 2F7-hFc; NCI-CoV-2F7 VHH-hFc fusion protein
# Target: SARS-CoV-2 spike on pseudovirus (SARS-CoV-2, UniProt P0DTC2 14-1273)
# Assay: cell-based or functional assay
row,Binder,"IC50, SARS-CoV-2 spike pseudovirus neutralization, repeated assay (FIGS. 9A-9F) [µM]"
1,B1,0.428
2,B2,5.79

# Target: T1, SARS-CoV-2 S trimer (SARS-CoV-2, UniProt P0DTC2 16-1213)
# T1 construct: also called SARS-CoV-2 S protein; S homotrimer protein
# Assay: monoclonal phage ELISA, drawn table of OD450 values
row,Binder,OD450
1,B3,0.63
2,B4,0.6
3,B5,0.58
4,B6,0.72
5,B7,0.59
6,B8,0.76

# Target: T2, SARS-CoV-2 S1
# T2 construct: also called S1 subunit of the SARS-CoV-2 spike protein
# Assay: as above
row,Binder,OD450
1,B3,0.84
2,B4,0.62
3,B5,0.51
4,B6,0.82
5,B9,0.68
6,B10,0.88
7,B7,0.54
8,B8,0.52

# Target: SARS-CoV-2 RBD (SARS-CoV-2, UniProt P0DTC2 319-541)
# Assay: monoclonal VHH phage clone binding screen (FIG. 3A)
row,Binder,binding result
1,B10,binds

# Target: T3, BSA (UniProt P02769 25-607)
# T3 construct: also called control protein
# Assay: ELISA, 1 µg/ml coated BSA, 1 µg/ml VHH-hFc
# T3 sequence (P02769 25-607 limits assumed): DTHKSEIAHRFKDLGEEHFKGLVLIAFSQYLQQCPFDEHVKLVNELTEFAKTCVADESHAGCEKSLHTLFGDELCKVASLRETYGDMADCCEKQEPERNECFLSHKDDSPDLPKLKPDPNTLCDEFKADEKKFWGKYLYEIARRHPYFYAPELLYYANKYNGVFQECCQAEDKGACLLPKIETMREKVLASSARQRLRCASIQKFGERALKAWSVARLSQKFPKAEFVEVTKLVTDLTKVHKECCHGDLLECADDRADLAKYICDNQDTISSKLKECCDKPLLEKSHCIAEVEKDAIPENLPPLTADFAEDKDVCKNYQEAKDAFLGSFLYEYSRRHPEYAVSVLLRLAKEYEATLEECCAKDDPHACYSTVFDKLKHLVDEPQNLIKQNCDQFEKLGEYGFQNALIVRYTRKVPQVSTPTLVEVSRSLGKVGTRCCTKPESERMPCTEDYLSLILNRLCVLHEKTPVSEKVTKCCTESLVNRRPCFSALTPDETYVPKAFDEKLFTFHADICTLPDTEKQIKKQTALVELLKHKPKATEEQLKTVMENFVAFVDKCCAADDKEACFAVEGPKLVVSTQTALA
row,Binder,binding result
1,B11,no binding (tested: 1 µg/ml)
2,B1,no binding (tested: 1 µg/ml)
3,B12,no binding (tested: 1 µg/ml)
4,B2,no binding (tested: 1 µg/ml)

# Target: T4, SARS-CoV S1 (SARS-CoV, UniProt P59594 14-667)
# T4 construct: domain: S1; also called SARS-CoV S1 protein
# Assay: ELISA, 1 µg/ml coated antigen, 1 µg/ml VHH-hFc
row,Binder,binding result
1,B11,binds
2,B12,no binding (tested: 1 µg/ml)
